Target: TRPV1 (Rattus norvegicus, UniProt O35433)
Experiment: electrophysiology, Hill fit

TRPV1, sequence (O35433 whole entry): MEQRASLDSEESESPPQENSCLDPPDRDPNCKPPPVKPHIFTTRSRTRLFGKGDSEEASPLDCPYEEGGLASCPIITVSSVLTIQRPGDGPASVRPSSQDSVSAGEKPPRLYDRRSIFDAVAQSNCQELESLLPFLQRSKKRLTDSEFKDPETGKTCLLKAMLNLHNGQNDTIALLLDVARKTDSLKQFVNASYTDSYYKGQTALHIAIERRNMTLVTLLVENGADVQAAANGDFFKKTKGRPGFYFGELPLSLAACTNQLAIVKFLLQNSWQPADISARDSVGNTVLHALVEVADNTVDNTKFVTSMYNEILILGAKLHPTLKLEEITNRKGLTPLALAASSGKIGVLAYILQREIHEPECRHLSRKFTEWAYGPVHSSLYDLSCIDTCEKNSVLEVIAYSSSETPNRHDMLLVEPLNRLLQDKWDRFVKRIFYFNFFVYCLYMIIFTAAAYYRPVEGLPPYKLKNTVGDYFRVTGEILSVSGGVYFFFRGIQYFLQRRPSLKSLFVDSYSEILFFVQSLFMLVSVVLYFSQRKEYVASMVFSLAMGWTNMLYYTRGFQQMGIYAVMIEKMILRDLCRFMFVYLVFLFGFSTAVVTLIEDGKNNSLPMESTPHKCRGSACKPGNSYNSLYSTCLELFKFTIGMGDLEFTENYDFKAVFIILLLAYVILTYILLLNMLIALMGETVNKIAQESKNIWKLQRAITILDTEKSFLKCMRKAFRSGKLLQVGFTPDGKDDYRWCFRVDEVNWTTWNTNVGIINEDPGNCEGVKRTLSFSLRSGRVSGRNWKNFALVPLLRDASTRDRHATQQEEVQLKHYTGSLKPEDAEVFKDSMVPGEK

B1: double-knot toxin (DkTx) K2 knot (peptide)
chain: TNCAKEGEVCGWGSKCCHGLDCPLAFIPYC
With B1 as the binder, how does the Kd read?
Its Kd is 8.5 µM.
